Key:
bone marrow osteoclasts = experiment: Osteoclast resorption assay; assay type: cell-based, mice; settings: WT osteoclasts, inhibitors 10 μM or muRANK-Fc 10 μg/mL daily day 9 to 12
Protocol: Bone marrow osteoclasts were generated from 6 to 8 week old WT and RonTK−/− mice. Briefly, bone marrow was isolated from hindlimb bones and plated in α-MEM media containing 10% heat-inactivated fetal bovine serum (FBS, Sigma, St. Louis, Mo.), 100 units/mL penicillin-streptomycin (Hyclone), and 33 ng/mL human macrophage colony-stimulating factor (hM-CSF) (PeproTech, Rocky Hill, N.J.) for 24 hours. Non-adherent cells were collected and frozen for later use. To assess resorption activity, bone marrow precursor cells were thawed and seeded at a density of 1×10^5 cells per well in BioCoat Osteologic slides (BD Biosciences, San Jose, Calif.) in α-MEM media containing 10% FBS and antibiotics. After adhering overnight, media was removed and media containing 33 ng/mL hM-CSF and 9 ng/mL muRANKL (R & D systems, Minneapolis, Minn.) was added. The medium was changed every 3 days depending on acidification, and the assay was terminated as indicated. Recombinant human MSP was prepared and added daily as indicated. Cells were removed with 6% bleach and slides were viewed microscopically using phase-contrast with 20× magnification. Osteolytic resorption area within 5 representative fields was determined using Image J software, experiments were performed in triplicate. Recombinant MSP was prepared as follows (to be described in detail elsewhere): Concentrated, serum-free media from an MCF7 cell line engineered to overexpress MSP was cleaved with kallikrein (Invitrogen, Waltham, Mass.; 4 ng of kallikrein/1 μg of supernatant protein at 37° C. for 2.5 hours). The reaction was diluted to 20 mL with 10 mM sodium phosphate, pH 7.4 and loaded onto a 5 mL HiTrap heparin column (Millipore, Billerica, Mass.) equilibrated with 20 mL of 10 mM sodium phosphate, pH 7.4, at a rate of 1 mL/min. The column was washed with 10 mL of 10 mM sodium phosphate, pH 7.4, at a rate of 1 mL/min. […]

[1] = system: MDA-MB-231 control tumor cells; experiment: Intratibial MDA-MB-231 control tumor-induced osteolysis; assay type: in vivo, NOD.SCID mice; settings: treated 3 days post tumor cell injection, sacrificed 30 days
Excerpt: All procedures involving mice and experimental protocols were approved by the Institutional Animal Care and Use Committee (IACUC) of the University of Utah. The RonTK−/− mice which reside on the FVB background, were crossed with NOD.SCID mice for an immune-compromised mouse model. As a control, wild-type FVB mice were also crossed with NOD.SCID mice. The STK−/− mice, which are on a C57BL/6 background, were compared to wild-type C57BL/6 mice as controls. Mice for all experiments were 6 to 8 weeks of age. For intratibial injections, 1×10^5 (PyMTor DU4475) or 3×10^5 (MDA-MB-231) tumor cells were resuspended in 10 μL matrigel and injected into the right tibia of anesthetized female FVB (PyMT) or NOD.SCID mice carrying various alleles of RON. Osteolysis was assessed by X-ray radiography. Dissected hindlimbs from mice sacrificed at the final time point in each experiment were placed in the Kodak In-vivo Multispectral Imaging System FX and exposed to X-ray radiography at 35 kV for 100 sec. Excess tumor tissue was removed from the bones prior to X-ray. Osteolytic lesions were quantified using Image J software (NCBI). All images were compared to the contralateral leg as an internal control.
For in vivo experiments, the OSI-296 inhibitor was dissolved in 40% Trappsol with 0.01 M HCl, and mice were treated at a concentration of 200 mg/kg daily by oral gavage. […]

B1: muRANK-Fc: murine RANKL antagonist (Amgen) (protein)
chain: VTPPCTQERHYEHLGRCCSRCEPGKYLSSKCTPTSDSVCLPCGPDEYLDTWNEEDKCLLHKVCDAGKALVAVDPGNHTAPRRCACTAGYHWNSDCECCRRNTECAPGFGAQHPLQLNKDTVCTPCLLGFFSDVFSSTDKCKPWTNCTLLGKLEAHQGTTESDVVCSSSMTLRRPPKEAQAYLPS
modifications: left off: a dimerising Fc or GST
MSP-induced increase in osteoclast resorption (resorption area) (bone marrow osteoclasts): only slightly reduced
osteolysis from control MDA-MB-231 tumor cells [1]: reduced osteolysis
